Article PMC12609080, “Substrate recognition by human separase” (Science Advances, 2025)
Each block holds one molecule with its values, some of them ahead of it.

Legend:
Test in all cases: fluorescence polarisation; FlAsH-EDT2-labelled SCC1 fragment as probe, inactive separase added; 25 mM Hepes (pH 8.0), 100 mM NaCl, bovine serum albumin (0.1 mg/ml), 0.01% NP-40; room temperature (25°C); One Site-Total nonlinear fit
[1] = biological target: phosphorylated SCC1 site 1 (100 to 320) (human) (UniProt O60216)
[2] = biological target: MBP-SCC1^100–320 with C-terminal tetracysteine motif, unphosphorylated (human) (UniProt O60216)
[3] = biological target: T1, inactive apo-separase (separase^C2029S) (human, UniProt Q14674 1-2120, C2029S); settings: both partners purified
T1 construct: human separase (2120 amino acids), amino acids 1 to 2120, catalytic cysteine replaced with serine; Gene-optimised synthetic cDNA in the pF1 vector; also called apo-separase^C2029S; source: Sf9 (baculovirus), purified (Strep-Tactin, heparin, Superose 6)
T1 sequence (Q14674 whole entry C2029S, the tested form may be a part): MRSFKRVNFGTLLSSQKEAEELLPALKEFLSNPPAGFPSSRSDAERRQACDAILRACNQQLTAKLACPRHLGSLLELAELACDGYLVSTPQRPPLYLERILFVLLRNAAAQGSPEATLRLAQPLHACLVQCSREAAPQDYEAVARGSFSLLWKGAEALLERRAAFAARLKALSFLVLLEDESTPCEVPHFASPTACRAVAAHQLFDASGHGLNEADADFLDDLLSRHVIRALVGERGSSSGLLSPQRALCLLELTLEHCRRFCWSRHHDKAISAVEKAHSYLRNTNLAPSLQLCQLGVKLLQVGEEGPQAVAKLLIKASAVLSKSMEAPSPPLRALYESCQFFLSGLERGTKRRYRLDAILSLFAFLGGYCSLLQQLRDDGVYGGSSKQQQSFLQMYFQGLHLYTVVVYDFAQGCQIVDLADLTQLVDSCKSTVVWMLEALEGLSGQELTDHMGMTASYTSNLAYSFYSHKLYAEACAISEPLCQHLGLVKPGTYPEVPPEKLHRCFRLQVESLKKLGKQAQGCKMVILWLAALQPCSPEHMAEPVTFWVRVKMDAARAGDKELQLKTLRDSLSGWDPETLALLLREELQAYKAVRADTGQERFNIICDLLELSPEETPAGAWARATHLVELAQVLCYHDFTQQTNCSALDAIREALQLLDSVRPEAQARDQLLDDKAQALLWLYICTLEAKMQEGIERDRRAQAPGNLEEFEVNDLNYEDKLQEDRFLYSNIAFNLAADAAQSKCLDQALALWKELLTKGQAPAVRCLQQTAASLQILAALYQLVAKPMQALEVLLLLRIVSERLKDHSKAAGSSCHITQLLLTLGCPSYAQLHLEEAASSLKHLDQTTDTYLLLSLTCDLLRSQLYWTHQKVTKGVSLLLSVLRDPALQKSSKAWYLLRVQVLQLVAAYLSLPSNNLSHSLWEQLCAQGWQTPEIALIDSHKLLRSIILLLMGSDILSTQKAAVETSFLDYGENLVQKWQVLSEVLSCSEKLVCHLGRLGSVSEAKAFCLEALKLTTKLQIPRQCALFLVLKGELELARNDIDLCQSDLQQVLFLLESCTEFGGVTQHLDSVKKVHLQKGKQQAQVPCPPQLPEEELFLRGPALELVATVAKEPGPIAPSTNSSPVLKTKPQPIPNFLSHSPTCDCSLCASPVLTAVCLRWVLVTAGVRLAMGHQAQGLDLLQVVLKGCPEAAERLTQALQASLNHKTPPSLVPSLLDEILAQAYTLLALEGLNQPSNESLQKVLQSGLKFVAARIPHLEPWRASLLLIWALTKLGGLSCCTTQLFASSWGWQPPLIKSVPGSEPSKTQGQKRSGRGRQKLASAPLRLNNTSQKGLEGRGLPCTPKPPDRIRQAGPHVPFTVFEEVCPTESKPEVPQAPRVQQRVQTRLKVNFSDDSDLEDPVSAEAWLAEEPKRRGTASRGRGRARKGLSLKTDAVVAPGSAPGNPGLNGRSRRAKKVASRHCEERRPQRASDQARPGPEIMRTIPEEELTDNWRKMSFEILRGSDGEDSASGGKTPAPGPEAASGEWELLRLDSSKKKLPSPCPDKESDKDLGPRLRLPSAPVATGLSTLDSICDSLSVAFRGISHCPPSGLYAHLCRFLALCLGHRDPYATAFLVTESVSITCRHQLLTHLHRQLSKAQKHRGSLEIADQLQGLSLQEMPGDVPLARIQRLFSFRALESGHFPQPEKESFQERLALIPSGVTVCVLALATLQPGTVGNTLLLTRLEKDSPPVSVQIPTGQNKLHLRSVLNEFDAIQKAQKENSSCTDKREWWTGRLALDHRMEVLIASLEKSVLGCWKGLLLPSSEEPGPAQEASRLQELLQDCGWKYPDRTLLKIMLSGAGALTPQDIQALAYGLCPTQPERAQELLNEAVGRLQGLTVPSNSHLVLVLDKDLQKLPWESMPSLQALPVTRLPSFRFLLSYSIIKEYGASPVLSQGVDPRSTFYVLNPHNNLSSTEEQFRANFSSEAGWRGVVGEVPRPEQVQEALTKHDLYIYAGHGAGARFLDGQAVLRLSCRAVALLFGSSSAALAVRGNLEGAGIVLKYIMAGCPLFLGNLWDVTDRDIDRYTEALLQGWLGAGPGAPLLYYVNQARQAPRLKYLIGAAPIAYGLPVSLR

Sequence of phosphorylated SCC1 site 1 (100 to 320) (human) (O60216 100-320): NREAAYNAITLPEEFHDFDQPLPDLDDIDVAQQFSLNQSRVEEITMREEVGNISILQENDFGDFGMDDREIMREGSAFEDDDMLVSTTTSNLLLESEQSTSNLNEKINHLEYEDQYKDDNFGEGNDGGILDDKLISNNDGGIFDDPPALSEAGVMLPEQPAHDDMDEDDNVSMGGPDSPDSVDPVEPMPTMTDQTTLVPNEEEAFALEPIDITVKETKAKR
Sequence of MBP-SCC1^100–320 with C-terminal tetracysteine motif, unphosphorylated (human) (O60216 100-320): as above

- fold lower Kd than unphosphorylated SCC1 100-320 [1]: 2 fold
- fold lower Kd than the SCC1 350-550 construct [2]: 3 fold
Molecule: inactive apo-separase (separase^C2029S), Q14674 1-2120

- binding result [3]: binds
B1: MBP-SCC1^350–550 with C-terminal tetracysteine motif, unphosphorylated (domain or fragment, human, UniProt O60216 350-550, looked up)
chain: TLDLAPPTKKLMMWKETGGVEKLFSLPAQPLWNNRLLKLFTRCLTPLVPEDLRKRRKGGEADNLDEFLKEFENPEVPREDQQQQHQQRDVIDEPIIEEPSRLQESVMEASRTNIDESAMPPPPPQGVKRKAGQIDPEPVMPPQQVEQMEIPPVELPPEEPPNICQLIPELELLPEKEKEKEKEKEDDEEEEDEDASGGDQD
modifications: FlAsH-EDT2 fluorescent dye on the C-terminal tetracysteine motif
notes: human SCC1/RAD21, amino acids 350 to 550 (holds cleavage site 2, R427); pETM41 vector; also called SCC1 site 2 (amino acids 350 to 550); source: E. coli BL21, purified (HiTrap MBP, Superdex 200); not shown: 6xHis-MBP, N-terminal, kept
